Experimental findings from patent publication US20230295324A1 (published 2023) are described below.

Test [1] addresses T1, cynomolgus monkey OX40 protein (Novoprotein, #CB17) (cynomolgus monkey).
T1 construct: Bought recombinant protein; also called cyno OX40
The test can be described thus: BLI, antibody on ProA sensor, 1:1 global fit. The method, then:
(§1) The binding kinetics between the antigen and the antibody was analyzed by the Biolayer Interferometry (BLI) technique using an Octet Red 96e molecular interaction analyzer (Fortebio).
(§2) The association and dissociation signals between the OX40 antibodies and OX40 proteins were recorded by Octet Red 96 in real time. When data analysis was performed using Octet Data Analysis software (Fortebio, version 11.0), 0 nM was used as a reference hole, and reference subtraction was performed; the “1:1 Global fitting” method was selected to fit the data, and the kinetics parameters of the binding of antigens to antigen-binding proteins were calculated, with kon(1/Ms) values, kdis(1/s) values and KD(M) values obtained.
For orientation: Biolayer interferometry detects binding as a change in optical thickness at a sensor tip.

In test [2] the target is T1, cynomolgus monkey OX40 protein …. The test can be described thus: ELISA, coated cyno OX40 protein. The method, then: (§3) This example is intended to investigate the in vitro binding activity of the anti-OX40 HCAb monoclonal antibodies prepared in Example 1 to human and cynomolgus monkey OX40 proteins. The antibody binding assay at the protein level was performed using a human OX40 protein (Acro biosystem, #OX0-H5224) and a cynomolgus monkey OX40 protein (Novoprotein, #CB17). Briefly, a 384-well plate (PerkinElmer, #6007509) was coated with 1 μg/mL human OX40 protein and a cynomolgus monkey OX40 protein dissolved in PBS at 20 μL/well, and incubated at 4° C. overnight. The next day, the 384-well plate was washed three times with PBS containing 0.05% Tween (MEDICAGO, #09-9410-100), and blocked with PBS containing 2% milk (Bio-Rad, #170-6404) at 37° C. for 1 h. […] The plate was added with a stop buffer (BBI life sciences, #E661006-0200) at 20 μL/well, and read for OD₄₅₀₋₆₅₀ values using a plate reader (Molecular Devices, model: SpectraMax Plus). The values were analyzed with Graphad 8.0 and plotted.

For test [3], the target named is T2, human OX40 protein (Acro biosystem, #OX0-H5224) (human, UniProt P43489 29-216).
T2 construct: Bought recombinant protein
T2 sequence (looked up): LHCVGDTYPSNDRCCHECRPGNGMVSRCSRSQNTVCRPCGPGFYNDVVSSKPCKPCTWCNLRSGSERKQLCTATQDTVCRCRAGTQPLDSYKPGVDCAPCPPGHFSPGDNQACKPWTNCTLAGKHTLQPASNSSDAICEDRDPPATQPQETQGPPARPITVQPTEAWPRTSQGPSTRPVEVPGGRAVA
As to the kind of experiment: BLI, antibody on ProA sensor, 1:1 global fit. The method, then:
as §1, §2

Test [4] has as its target T3, human OX40 on cells (CHO-K1/hu OX40) (human, UniProt P43489 29-277).
T3 sequence (looked up): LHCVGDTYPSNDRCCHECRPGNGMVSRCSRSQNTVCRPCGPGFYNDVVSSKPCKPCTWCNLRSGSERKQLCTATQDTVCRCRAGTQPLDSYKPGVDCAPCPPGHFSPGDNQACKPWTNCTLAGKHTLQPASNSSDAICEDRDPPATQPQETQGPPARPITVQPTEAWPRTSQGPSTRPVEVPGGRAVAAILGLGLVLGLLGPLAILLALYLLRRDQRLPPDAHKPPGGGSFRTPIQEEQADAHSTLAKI
As to the kind of experiment: cell-based or functional assay.

The target of test [5] is T3, human OX40 on cells (CHO-K1/hu OX40). As to the kind of experiment: FACS, CHO-K1/hu OX40 cells. The method, then: This example is intended to investigate the in vitro binding activity of anti-human OX40 HCAb monoclonal antibodies to human OX40. The antibody binding assay at the cellular level was performed using a stable CHO-K1 cell strain overexpressing human OX40 (CHO-K1/hu OX40). Briefly, the CHO-K1/hu OX40 cells were digested, resuspended in an F12K complete medium and washed once with PBS. The cell density was adjusted to 1×10⁶ cells/mL with PBS. The cells were seeded in a 96-well V-bottom plate (Corning, #3894) at 100 μL/well, and centrifuged, and then the supernatant was discarded. Then, the test antibodies diluted in a 3-fold gradient at concentrations that were 2 times the final concentrations were added at 100 μL/well. The cells were incubated at 4° C. for 1 h away from light. Thereafter, the cells in each well were rinsed twice with 100 μL of pre-cooled PBS, and centrifuged at 500 g at 4° C. for 5 min, and then the supernatant was discarded. […] The plate was incubated away from light at 4° C. for 30 min. The cells in each well were rinsed twice with 100 μL of pre-cooled PBS, and centrifuged at 500 g at 4° C. for 5 min, and then the supernatant was discarded. Finally, the cells in each well were resuspended in 200 μL of pre-cooled PBS, and the fluorescence signal values were read using a BD FACS CANTOII.

For test [6], the target named is T2, human OX40 protein (Acro biosystem, …). As to the kind of experiment: ELISA, coated human OX40 protein. The method, then:
as §3

Test [7] has as its target T3, human OX40 on cells (CHO-K1/hu OX40). As to the kind of experiment: FACS, blocking of biotin-human OX40L on CHO-K1/hu OX40 cells. The method, then: Briefly, the CHO-K1/hu OX40 cells were digested and resuspended in an F-12K complete medium, and the cell density was adjusted to 1×10⁶ cells/mL. The cells were seeded in a 96-well V-bottom plate (Corning, #3894) at 100 μL/well, and centrifuged, and then the supernatant was discarded. The test antigen-binding proteins diluted in a 3-fold gradient at concentrations that were 2 times the final concentrations were added at 100 μL/well, and the mixture was well mixed, wherein the antigen-binding protein had the highest final concentration of 100 nM, and a total of 8 concentrations were obtained. […] The cells were incubated at 4° C. for 1 h away from light. Thereafter, the cells were centrifuged at 4° C. for 5 min, and then the supernatant was discarded. […] The cells in each well were rinsed twice with 100 μL of pre-cooled PBS, and centrifuged at 500 g at 4° C. for 5 min, and then the supernatant was discarded. A 1:200 fluorescent secondary antibody PE Streptavidin (BD Biosciences, #554061) was added at 100 μL/well, and the cells were incubated away from light at 4° C. for 30 min. The cells in each well were rinsed twice with 200 μL of pre-cooled PBS, and centrifuged at 500 g at 4° C. for 5 min, and then the supernatant was discarded. Finally, the cells in each well were resuspended in 200 μL of precooled PBS. Fluorescence signal values were read using BD FACS CANTOII, and IC50 was calculated. Inhibition rate %={average MFI of non-blocking control well−MFI value of OX40 antibody}/{(average MFI of non-blocking control well)−average MFI of 100% blocking control well)}×100%.
On the technique in general: In flow cytometry, cells or beads pass a laser one at a time.

B1: Pogalizumab analog (PR003475) (antibody, human IgG1, kappa, V domains shown)
VH: EVQLVQSGAEVKKPGASVKVSCKASGYTFTDSYMSWVRQAPGQGLEWIGDMYPDNGDSSYNQKFRERVTITRDTSTSTAYLELSSLRSEDTAVYYCVLAPRWYFSVWGQGTLVTVSS
VL: DIQMTQSPSSLSASVGDRVTITCRASQDISNYLNWYQQKPGKAPKLLIYYTSRLRSGVPSRFSGSGSGTDFTLTISSLQPEDFATYYCQQGHTLPPTFGQGTKVEIKR
notes: Conventional IgG antibody; also called Tab
With B1, in test [1], the Kd (as a rule, the concentration at which binding is half-saturated) came out at 0.0894 nM. In test [2], the 50% effective concentration (EC50) (in general, the concentration that produces a half-maximal response) amounted to 0.194 nM and the “Maximum OD” value was 2.23 OD.

B2: PR002063 (antibody, human IgG1, V domains shown)
VH: EVQLLESGGGLVQPGGSLRLSCAASGFTFSSYAMSWVRQAPGRGLEWVSAISGGGGSTFYADSVRGRFTISRDNSKNTLYLQMSSLRAEDTAVYYCANGMTGTTDVDYWGQGTRVTVSS
notes: no light chain; also called anti-OX40 HCAb antibody
Consider B2, for which, in test [1], the Kd was 53.4 nM; the koff – broadly, the rate constant with which the complex falls apart – was determined as 0.00192 s⁻¹; the kon – broadly, the rate constant with which the complex forms – turned out to be 36000 M⁻¹ s⁻¹. In test [3], the Kd was determined as 13 nM, the koff came to 0.000511 s⁻¹ and the kon turned out to be 39200 M⁻¹ s⁻¹. In addition, in test [4], the “EC50, HEK293/OX40/NF-kb luciferase reporter” value is 8.64 nM and the “Maximum fluorescence signal value, HEK293/OX40/NF-kb luciferase reporter” value (“Maximum fluorescence signal value” below) stood at 150000 luminescence. In test [5], a half-maximal response (EC50) required 9 nM and the “Maximum MFI” value was determined as 2240 MFI. In test [2], the EC50 was found to be 0.276 nM and the “Maximum OD” value was found to be 2.32 OD. Moreover, in test [6], the EC50 is 0.101 nM and the “Maximum OD” value stood at 2.28 OD. Besides, in test [7], the “Maximum inhibition rate (%)” value was 17%.

B3: PR002065 (antibody, human IgG1, V domains shown)
VH: EVQLVESGGGLVQPGGSLRLSCAASGFTFSSYAMSWVRQAPGKGLEWVSAISGRGDITFYADSVRGRFTISRDNSKNTLYLQMNSLRAEDTALYYCANGMTGSTDVDFWGQGTLVTVSS
notes: as for B2
In test [1], B3 had a Kd of 33.7 nM, a koff of 0.00104 s⁻¹ and a kon of 30800 M⁻¹ s⁻¹. Besides, in test [3], binding was put at a Kd of 6.79 nM, the koff turned out to be 0.000337 s⁻¹ and the kon was determined as 49600 M⁻¹ s⁻¹. Further, in test [4], the “EC50, HEK293/OX40/NF-kb luciferase reporter” value turned out to be 8.55 nM and the “Maximum fluorescence signal value” value is 149000 luminescence. In test [5], the EC50 came out at 3.82 nM and the “Maximum MFI” value came out at 2860 MFI. Besides, in test [2], the EC50 came to 0.103 nM and the “Maximum OD” value turned out to be 1.92 OD. Moreover, in test [6], the EC50 is 0.0639 nM and the “Maximum OD” value is 2.47 OD. For the same molecule, in test [7], the IC50 (usually the concentration that inhibits the measured activity by half) was 49.6 nM and the “Maximum inhibition rate (%)” value was determined as 44%.

B4: PR002077 (antibody, human IgG1, V domains shown)
VH: EVQLLESGGGLVQPGGSLRLSCAASGFTFSSYAMSWVRQAPGKGLEWVSAISGRGNITFYADSVRGRFTISRDNSKNTLYLQMNSLRAEDTAVYYCANGITGTTDVDYWGQGTLVTVSS
notes: as for B2
In test [1], B4 yielded a Kd of 22.1 nM, a koff of 0.000722 s⁻¹ and a kon of 32700 M⁻¹ s⁻¹. In test [3], this molecule showed a Kd of 10.6 nM, a koff of 0.000364 s⁻¹ and a kon of 34300 M⁻¹ s⁻¹. In test [4], the “EC50, HEK293/OX40/NF-kb luciferase reporter” value was found to be 3.51 nM and the “Maximum fluorescence signal value” value turned out to be 113000 luminescence. Also, in test [5], the midpoint of the response, the EC50, lay at 7.22 nM and the “Maximum MFI” value turned out to be 3980 MFI. Further, in test [2], the EC50 was determined as 0.441 nM and the “Maximum OD” value was 2.73 OD. Also, in test [6], the EC50 was determined as 0.146 nM and the “Maximum OD” value worked out at 2.67 OD. Also, in test [7], half-maximal inhibition (IC50) required 41.1 nM and the “Maximum inhibition rate (%)” value was 34%.

B5: PR002074 (antibody, human IgG1, V domains shown)
VH: EVQLLESGGGLVQPGGSLRLSCAASGFTFSSYAMSWVRQAPGKGLEWVSGISGGGNNTFYADSVRGRFTISRDNSKNTLYLQMNSLRAEDTAVYYCMRGWELPLLENWGQGTLVTVSS
notes: as for B2
With B5, in test [4], the “EC50, HEK293/OX40/NF-kb luciferase reporter” value was 3.08 nM and the “Maximum fluorescence signal value” value stood at 84800 luminescence. Besides, in test [5], it took 1.27 nM to reach a half-maximal effect (EC50) and the “Maximum MFI” value came out at 3540 MFI. In test [2], a half-maximal response (EC50) required 0.14 nM and the “Maximum OD” value came out at 2.34 OD. Besides, in test [6], the midpoint of the response, the EC50, lay at 0.0512 nM and the “Maximum OD” value is 2.35 OD. In addition, in test [7], the IC50 amounted to 43.1 nM and the “Maximum inhibition rate (%)” value was 81%.

B6: PR002058 (antibody, human IgG1, V domains shown)
VH: EVQLLESGGGLVQPGGSLRLSCAASGFTFSSYAMSWVRQAPGKGLEWVSAISGGSGSTFYADSVRGRFTISRDNSKNTLYLQMNSLRAEDTAVYYCADGVTGTDFDFWGQGTLVTVSS
notes: as for B2
For the molecule B6, in test [4], the “EC50, HEK293/OX40/NF-kb luciferase reporter” value worked out at 4.29 nM and the “Maximum fluorescence signal value” value was 136000 luminescence. In addition, in test [5], the EC50 is 5.79 nM and the “Maximum MFI” value was 3560 MFI. In test [2], the midpoint of the response, the EC50, lay at 0.0597 nM and the “Maximum OD” value was determined as 1.76 OD. In test [6], the EC50 amounted to 0.0629 nM and the “Maximum OD” value was 1.94 OD. Further, in test [7], the IC50 stood at 98.1 nM and the “Maximum inhibition rate (%)” value came out at 38%.

B7: PR002073 (antibody, human IgG1, V domains shown)
VH: EVQLVESGGGLVQPGGSLRLSCAASGFTFSSYAMSWVRQAPGKGLEWVSAISGGSGSTFYADSVRGRFTISRDNSKNTLYLQMNSLRAEDTAVYYCADGVTGTDFDFWGQGTLVTVSS
notes: as for B2
Regarding B7, in test [4], the “EC50, HEK293/OX40/NF-kb luciferase reporter” value stood at 6.39 nM and the “Maximum fluorescence signal value” value is 121000 luminescence. Also, in test [5], it took 6.55 nM to reach a half-maximal effect (EC50) and the “Maximum MFI” value was 3260 MFI. Besides, in test [2], the response was half-maximal at 0.146 nM (EC50) and the “Maximum OD” value was 2.55 OD. In test [6], the EC50 was determined as 0.085 nM and the “Maximum OD” value was determined as 2.38 OD. Besides, in test [7], it took 75.2 nM to reach half-maximal inhibition (IC50) and the “Maximum inhibition rate (%)” value was found to be 24%.
